The target in one data set is CheW (Escherichia coli) (UniProt P0A964). To be noted: cited from earlier work.
Data set [1] concerns Nc1ncnc2c1ncn2[C@@H]1O[C@H](COP(=O)(O)OP(=O)(O)OP(=O)(O)O)[C@@H](O)[C@H]1O. The data set can be described thus: purified protein. To be noted: Mg2+ ([…] MgCl2).
In data set [2] the target is Helicobacter pylori transducer-like protein D lacking the N-terminal His tag, TlpD(-His) (Helicobacter pylori (SS1 strain)) (UniProt B5Z6X0). The data set can be described thus: AUC; interference experiments, 3 x 28 uM TlpD(-His) in PBS (pH 7), 1 mM TCEP, 20 C, 55,000 rpm; KD from the integrated monomer and dimer peaks; dimer to monomers.

Sequence of CheA (P07363 whole entry): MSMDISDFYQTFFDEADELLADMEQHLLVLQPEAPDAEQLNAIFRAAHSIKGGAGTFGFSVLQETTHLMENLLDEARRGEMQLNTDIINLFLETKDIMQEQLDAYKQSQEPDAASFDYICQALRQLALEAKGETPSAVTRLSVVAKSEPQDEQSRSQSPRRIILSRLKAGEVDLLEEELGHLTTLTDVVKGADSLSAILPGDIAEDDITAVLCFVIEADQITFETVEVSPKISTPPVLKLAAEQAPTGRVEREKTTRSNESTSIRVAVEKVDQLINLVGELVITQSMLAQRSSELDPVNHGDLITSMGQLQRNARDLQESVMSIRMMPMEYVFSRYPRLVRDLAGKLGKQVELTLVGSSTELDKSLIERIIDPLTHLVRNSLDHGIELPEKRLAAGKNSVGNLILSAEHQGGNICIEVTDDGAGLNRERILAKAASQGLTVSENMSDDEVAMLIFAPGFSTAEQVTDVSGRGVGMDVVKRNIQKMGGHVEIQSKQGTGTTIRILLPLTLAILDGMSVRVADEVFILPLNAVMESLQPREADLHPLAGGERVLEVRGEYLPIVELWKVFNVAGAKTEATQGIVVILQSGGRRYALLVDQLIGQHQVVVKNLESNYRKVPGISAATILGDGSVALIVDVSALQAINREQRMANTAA

Usually Kd stands for the concentration at which binding is half-saturated. For CheA (from UniProt P07363), in the data set with CheW (Escherichia coli), the dissociation constant Kd was 17 µM.

Usually Km stands for the substrate concentration at which the rate is half of its maximum. CheA (Helicobacter pylori G27): the Km in data set [1] came out at 136 µM.

Take “Helicobacter pylori transducer-like protein D lacking the N-terminal His tag, TlpD(-His) (from UniProt B5Z6X0 1-433) (receptor)”: the equilibrium dissociation constant (Kd) in data set [2] turned out to be 0.0657 µM.

(Values after article PMC6715182, “Helicobacter pylori senses bleach (HOCl) as a chemoattractant using a cytosolic chemoreceptor” (PLoS Biology, 2019).)
